Data: patent publication US20260241018A1 (BIOCYTOGEN PHARMACEUTICALS BEIJING, published 2026)

Molecular target: T1, 5T4 on NCI-H226 cells, NCI-H2030 cells and HCC827 cells (UniProt Q13641 32-420, limits assumed)
T1 construct: whole, on cells
T1 sequence (looked up): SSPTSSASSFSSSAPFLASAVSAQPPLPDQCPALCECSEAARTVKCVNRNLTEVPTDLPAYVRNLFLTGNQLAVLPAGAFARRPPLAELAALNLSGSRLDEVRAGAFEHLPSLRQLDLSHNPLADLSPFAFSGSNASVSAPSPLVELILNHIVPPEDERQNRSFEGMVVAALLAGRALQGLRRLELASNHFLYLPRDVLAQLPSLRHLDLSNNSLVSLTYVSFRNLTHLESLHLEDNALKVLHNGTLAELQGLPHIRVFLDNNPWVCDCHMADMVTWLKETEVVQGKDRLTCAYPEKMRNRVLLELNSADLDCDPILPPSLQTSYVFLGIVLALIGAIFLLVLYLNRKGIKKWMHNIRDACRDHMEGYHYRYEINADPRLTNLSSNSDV
Assay: flow cytometry on NCI-H226 cells, Alexa Fluor 647 anti-human IgG Fc secondary antibody, MFI
Method: NCI-H226 cells, NCI-H2030 cells or HCC827 cells were plated in a 96-well plate at a density of 2×10⁵ cells/well. Serially diluted purified anti-5T4 antibody 32G1 or the positive control PF06263507 analog-SI (maximum concentration: 20 μg/mL, 2-fold dilutions, 12 gradients) were added to each well and were incubated at 4° C. for 30 minutes. Then, after one wash with PBS, the cells were incubated with the secondary antibody Alexa Fluor® 647 anti human IgG Fcγ (Jackson ImmunoResearch Laboratories, Inc., Cat #: 109-606-170) at 4° C. for 15 minutes before flow cytometry analysis.
The cells were collected, and the mean fluorescence intensity (MFI) was determined.

B1: PF06263507 analog-SI (antibody, V domains shown)
VH: EVQLVESGGGLVQPGGSLRLSCAASGYTFTNFGMNWVRQAPGKGLEWVAWINTNTGEPRYAEEFKGRFTISRDNAKNSLYLQMNSLRAEDTAVYYCARDWDGAYFFDYWGQGTLVTVSS
VL: DIQMTQSPSSLSASVGDRVTITCKASQSVSNDVAWYQQKPGKAPKLLIYFATNRYTGVPSRFSGSGYGTDFTLTISSLQPEDFATYYCQQDYSSPWTFGQGTKVEIK
notes: PF06263507 is a humanized IgG1 monoclonal antibody targeting 5T4; also called positive control PF06263507 analog-SI
binding result: binds
